Experiment: Thermostability of neurotensin receptor (NTR) mutants (3H-neurotensin binding)
Assay type: physicochemical
Conditions: for thermostability, heated in the presence of 3H-neurotensin: Ligand(+) format; for thermostability, 3H-neurotensin (agonist) binding after the heating step: heated in the absence of the agonist
Description: FIG. 12 Flow chart showing the two different assay formats of ligand (+) and ligand (−) used to determine receptor thermostablity.
3. Mutants tested for thermostability by heating in the absence of the agonist were re-tested using a slightly different assay where the mutants were heated in the presence of ^3H-neurotensin (Ligand(+) format in FIG. 12). […] All of these also have increased thermostability. • 5. Preferred combinations are • a. Nag7m F358A+A86L+1260A+F342A Tm 51° C. (neurotensin bound) • b. Nag7n F358A+H103A+1260A+F342A Tm 51° C. (neurotensin bound) • Wildtype NTR has a Tm of 35° C. with neurotensin bound.

| Molecule | thermostability, heated in the presence of 3H-neurotensin | thermostability, 3H-neurotensin (agonist) binding after the heating step |
| --- | --- | --- |
| A86L: NTR point mutant (protein, UniProt P20789 1-424, looked up, variant A86L) Neurotensin receptor type 1: MHLNSSVPQGTPGEPDAQPFSGPQSEMEATFLALSLSNGSGNTSESDTAGPNSDLDVNTDIYSKVLVTAIYLALFVVGTVGNSVTLFTLARKKSLQSLQSTVHYHLGSLALSDLLILLLAMPVELYNFIWVHHPWAFGDAGCRGYYFLRDACTYATALNVASLSVERYLAICHPFKAKTLMSRSRTKKFISAIWLASALLAIPMLFTMGLQNRSGDGTHPGGLVCTPIVDTATVKVVIQVNTFMSFLFPMLVISILNTVIANKLTVMVHQAAEQGRVCTVGTHNGLEHSTFNMTIEPGRVQALRHGVLVLRAVVIAFVVCWLPYHVRRLMFCYISDEQWTTFLFDFYHYFYMLTNALFYVSSAINPILYNLVSANFRQVFLSTLACLCPGWRHRRKKRPTFSRKPNSMSSNHAFSTSATRETLY | improved thermostability | small but significant increase in thermostability |
| R183A: NTR point mutant (protein, UniProt P20789 1-424, looked up, variant R183A) Neurotensin receptor type 1: MHLNSSVPQGTPGEPDAQPFSGPQSEMEATFLALSLSNGSGNTSESDTAGPNSDLDVNTDIYSKVLVTAIYLALFVVGTVGNSVTAFTLARKKSLQSLQSTVHYHLGSLALSDLLILLLAMPVELYNFIWVHHPWAFGDAGCRGYYFLRDACTYATALNVASLSVERYLAICHPFKAKTLMSASRTKKFISAIWLASALLAIPMLFTMGLQNRSGDGTHPGGLVCTPIVDTATVKVVIQVNTFMSFLFPMLVISILNTVIANKLTVMVHQAAEQGRVCTVGTHNGLEHSTFNMTIEPGRVQALRHGVLVLRAVVIAFVVCWLPYHVRRLMFCYISDEQWTTFLFDFYHYFYMLTNALFYVSSAINPILYNLVSANFRQVFLSTLACLCPGWRHRRKKRPTFSRKPNSMSSNHAFSTSATRETLY | improved thermostability |  |
| Y349A: NTR point mutant (protein, UniProt P20789 1-424, looked up, variant Y349A) Neurotensin receptor type 1: MHLNSSVPQGTPGEPDAQPFSGPQSEMEATFLALSLSNGSGNTSESDTAGPNSDLDVNTDIYSKVLVTAIYLALFVVGTVGNSVTAFTLARKKSLQSLQSTVHYHLGSLALSDLLILLLAMPVELYNFIWVHHPWAFGDAGCRGYYFLRDACTYATALNVASLSVERYLAICHPFKAKTLMSRSRTKKFISAIWLASALLAIPMLFTMGLQNRSGDGTHPGGLVCTPIVDTATVKVVIQVNTFMSFLFPMLVISILNTVIANKLTVMVHQAAEQGRVCTVGTHNGLEHSTFNMTIEPGRVQALRHGVLVLRAVVIAFVVCWLPYHVRRLMFCYISDEQWTTFLFDFYHAFYMLTNALFYVSSAINPILYNLVSANFRQVFLSTLACLCPGWRHRRKKRPTFSRKPNSMSSNHAFSTSATRETLY |  | small but significant increase in thermostability |
| 1253A: NTR point mutant (Ile 253) (protein, UniProt P20789 1-424, looked up, variant I253A) Neurotensin receptor type 1: MHLNSSVPQGTPGEPDAQPFSGPQSEMEATFLALSLSNGSGNTSESDTAGPNSDLDVNTDIYSKVLVTAIYLALFVVGTVGNSVTAFTLARKKSLQSLQSTVHYHLGSLALSDLLILLLAMPVELYNFIWVHHPWAFGDAGCRGYYFLRDACTYATALNVASLSVERYLAICHPFKAKTLMSRSRTKKFISAIWLASALLAIPMLFTMGLQNRSGDGTHPGGLVCTPIVDTATVKVVIQVNTFMSFLFPMLVASILNTVIANKLTVMVHQAAEQGRVCTVGTHNGLEHSTFNMTIEPGRVQALRHGVLVLRAVVIAFVVCWLPYHVRRLMFCYISDEQWTTFLFDFYHYFYMLTNALFYVSSAINPILYNLVSANFRQVFLSTLACLCPGWRHRRKKRPTFSRKPNSMSSNHAFSTSATRETLY | improved thermostability |  |
| A385L: NTR point mutant (protein, UniProt P20789 1-424, looked up, variant A385L) Neurotensin receptor type 1: MHLNSSVPQGTPGEPDAQPFSGPQSEMEATFLALSLSNGSGNTSESDTAGPNSDLDVNTDIYSKVLVTAIYLALFVVGTVGNSVTAFTLARKKSLQSLQSTVHYHLGSLALSDLLILLLAMPVELYNFIWVHHPWAFGDAGCRGYYFLRDACTYATALNVASLSVERYLAICHPFKAKTLMSRSRTKKFISAIWLASALLAIPMLFTMGLQNRSGDGTHPGGLVCTPIVDTATVKVVIQVNTFMSFLFPMLVISILNTVIANKLTVMVHQAAEQGRVCTVGTHNGLEHSTFNMTIEPGRVQALRHGVLVLRAVVIAFVVCWLPYHVRRLMFCYISDEQWTTFLFDFYHYFYMLTNALFYVSSAINPILYNLVSANFRQVFLSTLLCLCPGWRHRRKKRPTFSRKPNSMSSNHAFSTSATRETLY | improved thermostability | small but significant increase in thermostability |
| 1260A: NTR point mutant (Ile 260) (protein, UniProt P20789 1-424, looked up, variant I260A) Neurotensin receptor type 1: MHLNSSVPQGTPGEPDAQPFSGPQSEMEATFLALSLSNGSGNTSESDTAGPNSDLDVNTDIYSKVLVTAIYLALFVVGTVGNSVTAFTLARKKSLQSLQSTVHYHLGSLALSDLLILLLAMPVELYNFIWVHHPWAFGDAGCRGYYFLRDACTYATALNVASLSVERYLAICHPFKAKTLMSRSRTKKFISAIWLASALLAIPMLFTMGLQNRSGDGTHPGGLVCTPIVDTATVKVVIQVNTFMSFLFPMLVISILNTVAANKLTVMVHQAAEQGRVCTVGTHNGLEHSTFNMTIEPGRVQALRHGVLVLRAVVIAFVVCWLPYHVRRLMFCYISDEQWTTFLFDFYHYFYMLTNALFYVSSAINPILYNLVSANFRQVFLSTLACLCPGWRHRRKKRPTFSRKPNSMSSNHAFSTSATRETLY | improved thermostability |  |
| M250A: NTR point mutant (protein, UniProt P20789 1-424, looked up, variant M250A) Neurotensin receptor type 1: MHLNSSVPQGTPGEPDAQPFSGPQSEMEATFLALSLSNGSGNTSESDTAGPNSDLDVNTDIYSKVLVTAIYLALFVVGTVGNSVTAFTLARKKSLQSLQSTVHYHLGSLALSDLLILLLAMPVELYNFIWVHHPWAFGDAGCRGYYFLRDACTYATALNVASLSVERYLAICHPFKAKTLMSRSRTKKFISAIWLASALLAIPMLFTMGLQNRSGDGTHPGGLVCTPIVDTATVKVVIQVNTFMSFLFPALVISILNTVIANKLTVMVHQAAEQGRVCTVGTHNGLEHSTFNMTIEPGRVQALRHGVLVLRAVVIAFVVCWLPYHVRRLMFCYISDEQWTTFLFDFYHYFYMLTNALFYVSSAINPILYNLVSANFRQVFLSTLACLCPGWRHRRKKRPTFSRKPNSMSSNHAFSTSATRETLY | improved thermostability |  |
| H393A: NTR point mutant (protein, UniProt P20789 1-424, looked up, variant H393A) Neurotensin receptor type 1: MHLNSSVPQGTPGEPDAQPFSGPQSEMEATFLALSLSNGSGNTSESDTAGPNSDLDVNTDIYSKVLVTAIYLALFVVGTVGNSVTAFTLARKKSLQSLQSTVHYHLGSLALSDLLILLLAMPVELYNFIWVHHPWAFGDAGCRGYYFLRDACTYATALNVASLSVERYLAICHPFKAKTLMSRSRTKKFISAIWLASALLAIPMLFTMGLQNRSGDGTHPGGLVCTPIVDTATVKVVIQVNTFMSFLFPMLVISILNTVIANKLTVMVHQAAEQGRVCTVGTHNGLEHSTFNMTIEPGRVQALRHGVLVLRAVVIAFVVCWLPYHVRRLMFCYISDEQWTTFLFDFYHYFYMLTNALFYVSSAINPILYNLVSANFRQVFLSTLACLCPGWRARRKKRPTFSRKPNSMSSNHAFSTSATRETLY |  | small but significant increase in thermostability |
| A177L: NTR point mutant (protein, UniProt P20789 1-424, looked up, variant A177L) Neurotensin receptor type 1: MHLNSSVPQGTPGEPDAQPFSGPQSEMEATFLALSLSNGSGNTSESDTAGPNSDLDVNTDIYSKVLVTAIYLALFVVGTVGNSVTAFTLARKKSLQSLQSTVHYHLGSLALSDLLILLLAMPVELYNFIWVHHPWAFGDAGCRGYYFLRDACTYATALNVASLSVERYLAICHPFKLKTLMSRSRTKKFISAIWLASALLAIPMLFTMGLQNRSGDGTHPGGLVCTPIVDTATVKVVIQVNTFMSFLFPMLVISILNTVIANKLTVMVHQAAEQGRVCTVGTHNGLEHSTFNMTIEPGRVQALRHGVLVLRAVVIAFVVCWLPYHVRRLMFCYISDEQWTTFLFDFYHYFYMLTNALFYVSSAINPILYNLVSANFRQVFLSTLACLCPGWRHRRKKRPTFSRKPNSMSSNHAFSTSATRETLY | improved thermostability |  |
| C386A: NTR point mutant (protein, UniProt P20789 1-424, looked up, variant C386A) Neurotensin receptor type 1: MHLNSSVPQGTPGEPDAQPFSGPQSEMEATFLALSLSNGSGNTSESDTAGPNSDLDVNTDIYSKVLVTAIYLALFVVGTVGNSVTAFTLARKKSLQSLQSTVHYHLGSLALSDLLILLLAMPVELYNFIWVHHPWAFGDAGCRGYYFLRDACTYATALNVASLSVERYLAICHPFKAKTLMSRSRTKKFISAIWLASALLAIPMLFTMGLQNRSGDGTHPGGLVCTPIVDTATVKVVIQVNTFMSFLFPMLVISILNTVIANKLTVMVHQAAEQGRVCTVGTHNGLEHSTFNMTIEPGRVQALRHGVLVLRAVVIAFVVCWLPYHVRRLMFCYISDEQWTTFLFDFYHYFYMLTNALFYVSSAINPILYNLVSANFRQVFLSTLAALCPGWRHRRKKRPTFSRKPNSMSSNHAFSTSATRETLY |  | small but significant increase in thermostability |
| K397A: NTR point mutant (protein, UniProt P20789 1-424, looked up, variant K397A) Neurotensin receptor type 1: MHLNSSVPQGTPGEPDAQPFSGPQSEMEATFLALSLSNGSGNTSESDTAGPNSDLDVNTDIYSKVLVTAIYLALFVVGTVGNSVTAFTLARKKSLQSLQSTVHYHLGSLALSDLLILLLAMPVELYNFIWVHHPWAFGDAGCRGYYFLRDACTYATALNVASLSVERYLAICHPFKAKTLMSRSRTKKFISAIWLASALLAIPMLFTMGLQNRSGDGTHPGGLVCTPIVDTATVKVVIQVNTFMSFLFPMLVISILNTVIANKLTVMVHQAAEQGRVCTVGTHNGLEHSTFNMTIEPGRVQALRHGVLVLRAVVIAFVVCWLPYHVRRLMFCYISDEQWTTFLFDFYHYFYMLTNALFYVSSAINPILYNLVSANFRQVFLSTLACLCPGWRHRRKARPTFSRKPNSMSSNHAFSTSATRETLY |  | small but significant increase in thermostability |

From patent US8748182B2, “Mutant proteins and methods for producing them” (Heptares Therapeutics Limited, priority 2007, dated 2014)
